Measurements taken from the DeepSol protein solubility set.

Experiment: soluble on expression in E. coli; label from the status in PepcDB or PDB records

Sequence	soluble on expression in E. coli
MSLQCDDCKTKLMPLVAHEVDHIDNRRDVAGDLDDSPDNLRAVNRDCHRRITMRQIAEAGAVGTMAPVWMPITQKPLTVVVGPPSAGKSTWVKAAAKASDLVIDLDILAPTVIGKPMWIADSRERSLVIRERNSLVAEYMRGKTAHPHCFLIDTAGSFKRRKFWLDRGADVVLLDTDKDICRARIRQCSARPESTRAGRLAAVDRWEEGHHHHHH	not soluble
MGSDKIHHHHHHMNMKYQHIIEVDKELCIGCGLCKNDCPVNNIIIENKKSVIKKQDCLMCGHCAAICPTKAITLTGFDEPPIELTNKPKLDSDELLMAIKSRRSIRKFKDKEVSSEIIKQIIEAGRYTPSAKNSQDVSYIVLDNKKSIYENEAVKFFRKIKPIANIAIKYSKEVEIDDNFFFKHAPIAIMIITKDKISGSLAASNMALMAESYGLGVLFSGYFSDVANNSPKLKKLLGLKRSNHVLTTLVIGYPDVKYRRTAQKEVATVRYL	not soluble
MHHHHHHSSGVDLGTENLYFQSNAMSHSIEQLSINTIRTLSIDAIEKANSGHPGMPMGAAPMAYTLWTQFMKHNPNNPTWFNRDRFVLSAGHGSMLLYSLLHLSGYDVTMDDLKNFRQWGSKTPGHPEYGHTAGVDATTGPLGQGIATAVGMAMAERHLAAKYNRDAYNIVDHYTYAICGDGDLMEGVSAEASSLAAHLQLGRLVVLYDSNDISLDGDLNRSFSESVEDRYKAYGWQVIRVEDGNDIEAIAKAIEEAKADEKRPTLIEVRTTIGFGSPNKSGKSASHGSPLGVEETKLTKEAYAWTAEQDFHVAEEVYENFRKTVQDVGETAQAEWNTMLGEYAQAYPELANELQAAMNGLLPEGWEQNLPTYELGSKAATRNSSGAVINAIAESVPSFFGGSADLAGSNKTYMNNEKDFTRDDYSGKNIWYGVREFAMGAAMNGIALHGGLKTYGGTFFVFSDYLRPAIRLAALMQLPVTYVFTHDSIAVGEDGPTHEPIEQLAALRAMPNVSVIRPADGNESVAAWRLALESTNKPTALVLTRQDLPTLEGAKDDTYEKVAKGAYVVSASKKETADVILLATGSEVSLAVEAQKALAVDGVDASVVSMPSMDRFEAQTAEYKESVLPKAVTKRFAIEMGATFGWHRYVGLEGDVLGIDTFGASAPGEKIMEEYGFTVENVVRKVKEML	soluble
SIRLPAHLRLQPIYWSRDDVAQWLKWAENEFSLRPIDSNTFEMNGKALLLLTKEDFRYRSPHSGDELYELLQHILKQRDHHHHHHHRHD	soluble
MGSDKIHHHHHHMLRLSEIKLPLDHPPEAITTAILQKLKIQADELLGYEIFKRSYDARKKDAIVWVYILDLKVKNEAQLLKRFQKDPHVNPTPDMSYRVVAQAPEGLTERPVVIGAGPCGMFAALTLAQMGFRPILFERGKTVRDRTADTFAFWKKRGEFNPESNAQFGEGGAGTFSDGKLYSQVRDPQYYGRKVLTELVNSGANPEILYVNKPHIGTFKLVGVVQQMRARIEALGGEIHFQSRVESLHIEDRQVRGLRLTNGDYIPARHVVLAIGHSARDTFQMLFDQGVYIEAKPFSIGFRIEHPQPLIDRARFGPFAGHKSLGAADYKLVHHCQNGRTVYSFCMCPGGLVVAATSEPGRVVTNGMSQYSRNERNANSGIVVGITPEDYPGHPLAGIDLQRRLEAKAFELGGGTYEAPGQLVGDFLAGRPSQHLGTVRPSYAPGVHLTDLSESLPDYAIAAIREALPAFNRQIQGFALPDAMLTGVETRTSSPVRIKRGEDFQSLNTTGLFPAGEGAGYAGGILSAGIDGIKVAEAVALAMLRSQPQTV	not soluble
MAQPSTTYKFELNLTDLDRGVYESVKQTIARHPSETEERMTVRLLAYAFWYNEQLAFGRGLSDVDEPALWEKSLDDRVLHWIEVGQPDADRLTWCSRRTERTSLLAYGSLRVWEGKVIPAIKNLKNVNIAAVPQDVLEVLAKDMPRVIKWDVMISEGTVFVTDDRGQHEVQLQWLTGERG	soluble
MTGDYALCGWRVRIDRPSTFAPPWIGEDRPVDITIRHAAFSPPSPPLLFESPLVGVFAEGAIVLRINPGLGFLIEGGARITVDATAQTGEAEIATFLFGQCLGFLALQRRQPALRAASVVRDGRAVVLAGAAGVGKSTLAAALMAKGWGLLADEVTLIDPRTLLIPPAFGRIKLWKDSATHLGLEAAALPAVRPGWNKGHAPYGGHLAPAPVPLAAIILIEQAYTAKTAGIDKIAPREALAALNDQLHGGTFAGALAARPACFDLLTTLVGGVPVFQLSRPWHGMTLAPLVELLTAEMARLEHHHHHH	not soluble
MTDKYRLRERVWDDLEDSGVARFPFPPHGRIPNYAGADEAAARLTETDVWQRAETVKANPDAPQLPVRRAALRAGKTLYAAVPRLRDEECFLRLDPTTIDDIDAATTVSGIEEYGDPVGPGDVDPIDLIVSGSVAVTDRGERVGKGEGYSDLEFALLRAFGRVDDDTATVTTVHERQVVDDAVPTAAHDVPMEYVVTPDRTITTTHEDDTPSGIDWDALDEQRLAEIPVLDRRSP	soluble
MGSDKIHHHHHHMKLANQFNIAITPSGGRTGLSAGAVATNGEIVISMDKMNQILEFFPADRMVRVQAGVVTEQLQNYAEEQGMYYPVDFASAGSSQIGGNIGTNAGGIKVIKYGMTRNRVLGLTVVTGKGDILRLNKGMIKNATGYALQHLFIGGEGTLGLVTEAEIKLERQPQNLQVLVLGVPDFDAVMPVLHAFQKDIDLTAFEFFGELAMQKVLDRGHVQRPFETQCPFYVLLEFEAPYEPIIDKAMEIFEHCMEQGWVLDGVMSQSLDQVESLWRLREDISESIAPFIPYKNDISVLITHVPAFIREIDAIVQENYPDFEICWFGHIGDGNLHLNILKPENLTKDEFFAKCQVVNKYVFDTVKKYDGSISAEHGVGMTKKPYLEYSRSAEEIEYMKALKKVFDPKGIMNPGKLFDL	not soluble
MGSDKIHHHHHHMINAEPIISKMKNQKINYDKVLKKLIGQWEREAIRPKILLHSCCAPCSTYTLEFLTQYADIAIYFANSNIHPKNEYLRRAKVQEQFVEDFNRKTGANVKYIEAPYEPHKFVKMVKDKELADEKEGGLRCTACFEMRLDIVAKAAVEHGYDYFGSAITLSPKKNAQLINELGMDVQKIYDVNYLPSDFKKSKGYERSIEMCNDYNIFRQCYCGCVFAAMQQGIDFKTVNKEAKAFLEQYPD	not soluble
MFFKRGKILSAGRLNKKSLGIVMLLSVGLLLAGCSGSKSSDTGTYSGSVYTVKRGDTLYRISRTTGTSVKELARLNGISPPYTIEVGQKLKLGGAKSSSITRKSTAKSTTKTASVTPSSAVPKSSWPPVGQRCWLWPTTGKVIMPYSTADGGNKGIDISAPRGTPIYAAGAGKVVYVGNQLRGYGNLIMIKHSEDYITAYAHNDTMLVNNGQSVKAGQKIATMGSTDAASVRLHFQIRYRATAIDPLRYLPPQGSKPKC	not soluble
MARLAIGGGSLCPAYGALRMQPVSTFPIYIVSIARARARLEKMLEGASGLGLDLRPVEGVDGKTISPDDWRDFDRRGFELRNGRHALPGEYGCYASHIKALETFLATDAPVAVIVEDDVAFTPDFSERVKAMVAAMPDDAIVKLTNHRRKGFKARKTSALGDTFGRCIYGPQGSSACYIISRRAAERFLKAARRMTLPFDRALECGWGYGTEVYITDKDFLPFGDPDTLVGTRDEYRGSKFARLKRVPAYLSSFYDNIARYIYAYRLEHHHHHH	soluble
MTIEKIDTLVIGAGQAGVAMSEHLSKQDVPHLVLERNRIAEQWRTGRWDSLVANGPAWHDRFPGLEFEEHDPDSFVPKEKIADYLVDYAKKFDAPIRTGIEVKNVERNTNGQGFIIETSQGTIEAKRVVSATGPFQVPVIPPIAKNEKITQIHSADYRNPEQLEDGAVLVVGAGSSGVQIADELQRSGRKVFLSTGPHDRPPRSYRNRDFCWWLGVLGEWDRESLEPGTEHVTIAVTGAHGGNGTVDFRALAHQGITLLGMTKEFNNGKVTFQKDLNTNVERGNKNYMDFLDSADAYIERNGLDLPEEPTARDVLSDPECMTNPILELDLAKEGITSIVWATGFALDYSWLNVDAFDENGKPAHQRGVSTEPGVYFVGQAWLSRRGSAFIWGVWHDAKHIAGHISTQRTYSAYQDASQRLEHHHHHH	soluble
MAHHHHHHMAQSLVWRYLGPEDTHRCLDAPDVPSVRNLLVEIDDGMDGKLINCRNYNKGQLMIVLDMLAHLIVFTKTCSMSLEKVSTIVGIMLELHRESMSNQYTRSQSYHRLRELMLLHSVPRPPFSCGIFSVADVQHIDEYLLLSYFRHYKMYVYAFVPQRLANIHSVSVGHNHCVPPLGLPALTTATPRAEWIAKVEDTHRQMEERQMEVEDVRSAEYEEEWLKHRYLNGTHYSEGLREQLQSIKRDVSDKALNQLDLIEARLVEIEKKVEIVQQRQDGKGGKRKK	not soluble
